Assay results reported in publication PMC2700399 (The Journal of Cell Biology, 2009).

Experiments:
TAP-Nup170 = TAP-Nup170 (S. cerevisiae, UniProt P38181 1-1502); assay: pull-down
TAP-tagged Ndc1 = biological target: T1, TAP-tagged Ndc1 (S. cerevisiae, UniProt P32500 1-655); assay: pull-down
T1 sequence (looked up): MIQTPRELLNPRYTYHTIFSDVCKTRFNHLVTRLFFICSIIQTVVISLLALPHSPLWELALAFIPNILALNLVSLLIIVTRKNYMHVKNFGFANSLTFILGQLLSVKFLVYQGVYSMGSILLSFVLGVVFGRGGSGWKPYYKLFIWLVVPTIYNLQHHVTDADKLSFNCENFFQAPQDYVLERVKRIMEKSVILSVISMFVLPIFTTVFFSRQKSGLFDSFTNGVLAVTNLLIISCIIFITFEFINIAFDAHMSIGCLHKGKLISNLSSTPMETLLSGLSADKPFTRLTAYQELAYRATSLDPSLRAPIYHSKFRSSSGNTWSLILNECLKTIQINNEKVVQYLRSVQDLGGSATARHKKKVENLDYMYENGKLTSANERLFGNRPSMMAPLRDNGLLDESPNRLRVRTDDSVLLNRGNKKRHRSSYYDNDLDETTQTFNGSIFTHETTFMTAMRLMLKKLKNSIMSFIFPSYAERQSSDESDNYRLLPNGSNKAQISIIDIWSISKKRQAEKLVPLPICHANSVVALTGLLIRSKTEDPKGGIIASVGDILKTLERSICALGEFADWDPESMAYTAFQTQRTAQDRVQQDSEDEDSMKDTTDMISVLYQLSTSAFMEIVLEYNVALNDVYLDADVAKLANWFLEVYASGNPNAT

TAP-Nup170, sequence (P38181 whole entry): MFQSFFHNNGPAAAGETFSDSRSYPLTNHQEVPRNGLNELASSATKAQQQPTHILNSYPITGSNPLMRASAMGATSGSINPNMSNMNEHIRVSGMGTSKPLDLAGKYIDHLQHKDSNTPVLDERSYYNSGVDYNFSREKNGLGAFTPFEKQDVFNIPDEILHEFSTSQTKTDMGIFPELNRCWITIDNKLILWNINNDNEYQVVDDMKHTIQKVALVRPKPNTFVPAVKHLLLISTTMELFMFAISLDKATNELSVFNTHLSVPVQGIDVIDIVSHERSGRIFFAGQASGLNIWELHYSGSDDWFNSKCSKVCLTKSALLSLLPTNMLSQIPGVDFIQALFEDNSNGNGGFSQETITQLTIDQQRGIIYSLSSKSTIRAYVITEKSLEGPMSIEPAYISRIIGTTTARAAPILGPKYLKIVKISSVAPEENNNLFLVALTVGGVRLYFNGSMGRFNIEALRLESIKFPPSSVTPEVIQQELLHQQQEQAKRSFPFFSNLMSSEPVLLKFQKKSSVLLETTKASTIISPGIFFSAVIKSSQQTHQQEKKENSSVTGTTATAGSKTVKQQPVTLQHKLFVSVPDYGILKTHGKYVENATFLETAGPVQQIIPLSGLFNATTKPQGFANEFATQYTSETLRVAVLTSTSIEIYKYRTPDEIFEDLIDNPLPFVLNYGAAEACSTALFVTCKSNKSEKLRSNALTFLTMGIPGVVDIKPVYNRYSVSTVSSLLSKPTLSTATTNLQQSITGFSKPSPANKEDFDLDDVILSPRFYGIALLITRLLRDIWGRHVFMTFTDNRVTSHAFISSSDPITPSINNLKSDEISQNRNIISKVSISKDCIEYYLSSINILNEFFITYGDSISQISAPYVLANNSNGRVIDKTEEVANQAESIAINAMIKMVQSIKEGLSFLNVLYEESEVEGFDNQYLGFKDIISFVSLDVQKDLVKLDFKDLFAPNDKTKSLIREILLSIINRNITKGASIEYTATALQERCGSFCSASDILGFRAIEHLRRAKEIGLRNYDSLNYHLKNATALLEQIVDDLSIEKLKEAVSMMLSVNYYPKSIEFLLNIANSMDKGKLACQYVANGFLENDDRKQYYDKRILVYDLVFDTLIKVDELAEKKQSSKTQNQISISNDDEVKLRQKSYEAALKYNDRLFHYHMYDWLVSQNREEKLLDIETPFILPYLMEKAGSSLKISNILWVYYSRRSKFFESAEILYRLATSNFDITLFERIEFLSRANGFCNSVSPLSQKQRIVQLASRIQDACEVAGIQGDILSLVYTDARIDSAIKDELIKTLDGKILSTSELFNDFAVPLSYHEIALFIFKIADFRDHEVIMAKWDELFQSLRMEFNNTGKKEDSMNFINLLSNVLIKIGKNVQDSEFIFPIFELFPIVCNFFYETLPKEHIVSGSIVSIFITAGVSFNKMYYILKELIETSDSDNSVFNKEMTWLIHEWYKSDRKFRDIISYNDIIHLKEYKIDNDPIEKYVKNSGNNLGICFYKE

B1: 6xHis-MBP-Nup53 (natural protein, S. cerevisiae, UniProt Q03790 1-475, looked up)
chain: MADLQKQENSSRFTNVSVIAPESQGQHEQQKQQEQLEQQKQPTGLLKGLNGFPSAPQPLFMEDPPSTVSGELNDNPAWFNNPRKRAIPNSIIKRSNGQSLSPVRSDSADVPAFSNSNGFNNVTFGSKKDPRILKNVSPNDNNSANNNAHSSDLGTVVFDSNEAPPKTSLADWQKEDGIFSSKTDNIEDPNLSSNITFDGKPTATPSPFRPLEKTSRILNFFDKNTKTTPNTASSEASAGSKEGASTNWDDHAIIIFGYPETIANSIILHFANFGEILEDFRVIKDFKKLNSKNMSKSPSLTAQKYPIYTGDGWVKLTYKSELSKSRALQENGIIMNGTLIGCVSYSPAALKQLASLKKSEEIINNKTSSQTSLSSKDLSNYRKTEGIFEKAKAKAVTSKVRNAEFKVSKNSTSFKNPRRLEIKDGRSLFLRNRGKIHSGVLSSIESDLKKREQASKSKKSWLNRLNNWLFGWNDL
**Q.** Does B1 bind (TAP-Nup170)?
**A.** Result: binds

B2: GST-Nup53(376-475) (domain or fragment, S. cerevisiae, UniProt Q03790 376-475, looked up)
chain: KDLSNYRKTEGIFEKAKAKAVTSKVRNAEFKVSKNSTSFKNPRRLEIKDGRSLFLRNRGKIHSGVLSSIESDLKKREQASKSKKSWLNRLNNWLFGWNDL
**Q.** Does B2 bind (TAP-tagged Ndc1)?
**A.** Result: binds

B3: GST-Nup59 (natural protein, S. cerevisiae, UniProt Q05166 1-528, looked up)
chain: MFGIRSGNNNGGFTNLTSQAPQTTQMFQSQSQLQPQPQPQPQQQQQHLQFNGSSDASSLRFGNSLSNTVNANNYSSNIGNNSINNNNIKNGTNNISQHGQGNNPSWVNNPKKRFTPHTVIRRKTTKQNSSSDINQNDDSSSMNATMRNFSKQNQDSKHNERNKSAANNDINSLLSNFNDIPPSVTLQDWQREDEFGSIPSLTTQFVTDKYTAKKTNRSAYDSKNTPNVFDKDSYVRIANIEQNHLDNNYNTAETNNKVHETSSKSSSLSAIIVFGYPESISNELIEHFSHFGHIMEDFQVLRLGRGINPNTFRIFHNHDTGCDENDSTVNKSITLKGRNNESNNKKYPIFTGESWVKLTYNSPSSALRALQENGTIFRGSLIGCIPYSKNAVEQLAGCKIDNVDDIGEFNVSMYQNSSTSSTSNTPSPPNVIITDGTLLREDDNTPAGHAGNPTNISSPIVANSPNKRLDVIDGKLPFMQNAGPNSNIPNLLRNLESKMRQQEAKYRNNEPAGFTHKLSNWLFGWNDL
**Q.** Does B3 bind (TAP-tagged Ndc1)?
**A.** Result: binds

B4: 6xHis-MBP-Nup59 (natural protein, S. cerevisiae, UniProt Q05166 1-528, looked up)
chain: B3 chain
**Q.** Does B4 bind (TAP-Nup170)?
**A.** Result: binds
